Experimental data reported in patent US20210002363A1 (PHANES THERAPEUTICS, published 2021).
Residue numbers refer to the chain shown, from its start.

What was measured:
[1] = molecular target: T1, Recombinant extracellular domain of human FOLR1 (Novoprotein, Cat#: C784) (human, UniProt P15328 25-233, limits assumed); assay: ELISA on immobilized FOLR1 extracellular domain; O.D. 450 nm
T1 construct: Bought reagent; also called recombinant FOLR1; immobilized FOLR1 extracellular domain

[2] = molecular target: T2, FOLR1 on SK-OV-3 cells (ATCC HTB-77) (Homo sapiens (Human), UniProt P15328 25-234); assay: FACS on SK-OV-3 cells; MFI
T2 construct: Endogenous FOLR1 of the cell line; also called cells that are known to express FOLR1
T2 sequence (P15328 25-234 limits assumed): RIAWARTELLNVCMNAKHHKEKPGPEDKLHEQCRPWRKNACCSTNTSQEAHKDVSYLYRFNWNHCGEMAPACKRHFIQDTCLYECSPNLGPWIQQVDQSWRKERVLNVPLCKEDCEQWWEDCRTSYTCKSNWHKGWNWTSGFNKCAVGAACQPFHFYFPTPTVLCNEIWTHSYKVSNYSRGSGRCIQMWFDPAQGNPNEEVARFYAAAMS

[3] = molecular target: T1, Recombinant extracellular domain of …; assay: ELISA on immobilized FOLR1 extracellular domain; O.D. 450 nm; remark: listed apart in the source
[4] = molecular target: T2, FOLR1 on SK-OV-3 cells (ATCC HTB-77); assay: FACS on SK-OV-3 cells; MFI; remark: listed apart in the source
[5] = molecular target: T1, Recombinant extracellular domain of …; assay: ELISA on immobilized FOLR1 extracellular domain; O.D. 450 nm; remark: listed apart in the source
[6] = molecular target: T1, Recombinant extracellular domain of …; assay: as above; remark: listed apart in the source
[7] = molecular target: T1, Recombinant extracellular domain of …; assay: ELISA on plate-coated recombinant human FOLR1 extracellular domain; anti-human IgG-HRP; O.D. 450 nm
Description: The Purified chimeric mAbs were tested in an ELISA assay for their ability to bind to immobilized human FOLR1. Recombinant extracellular domain of human FOLR1 (Novoprotein, Cat#: C784) in carbonate coating buffer was coated on a 96-well plate at room temperature for 1 hour. The plate is blocked by 5% BSA in TBST for 1 hour at room temperature. In each well of an individual plate, mAbs at various concentrations were incubated for 1 hour at room temperature. The plate was washed and the binding to FOLR1 was detected by anti-human IgG conjugated to horseradish peroxidase (hIgG-HRP) (ThermoFisher Scientific, Cat#: H10007) with incubation for 1 hour at room temperature. Then after washing, the ELISA was developed using One-step Detection Solution (ThermoFisher Scientific, Cat#: 34028) and measured as the absorbance at 450 nm.

[8] = molecular target: T2, FOLR1 on SK-OV-3 cells (ATCC HTB-77); assay: FACS on SK-OV-3 cells; Alexa Fluor 488 F(ab')2 goat anti-human IgG Fc; MFI
Description: To assess the binding of the chimeric anti-FOLR1 mAbs to cells that are known to express FOLR1, SK-OV-3 (ATCC® HTB-77™) cells were plated at 80,000 cells per well on a 96-well non-binding U-bottom plate (Greiner Bio-One, Cat#: 650901). In some experiments, 90,000 cells per well were used. The cells were incubated in 50 μL FACS buffer (HBSS with 0.1% BSA and 0.05% sodium azide) containing mAbs at different concentrations on ice for 15 minutes. After wash, cells were incubated in 50 μL FACS buffer containing 3.5 μg/mL F(ab′)2-Goat anti-Human IgG Fc conjugated to Alexa Fluor® 488 (Invitrogen, Cat#: H10120) on ice for 15 minutes in dark and washed again. Cells were analyzed using an Attune NxT flow cytometer. MFI, mean fluorescence intensity.

[9] = molecular target: T1, Recombinant extracellular domain of …; assay: SPR (Biacore 8k), mAb captured on protein A chip, recombinant FOLR1 as analyte, 1:1 model
Description: The interaction of the chimeric anti-FOLR1 mAbs and FOLR1 was measured by Surface Plasmon Resonance (SPR) (Biacore 8k, GE Healthcare). Briefly, an anti-FOLR1 mAb was immobilized to a protein A sensor chip (GE Healthcare, Cat#: 29-1275-56) in HBS-P buffer (0.01 M HEPES pH 7.4, 0.15 M NaCl, 0.05% v/v Surfactant P20) with an injection flow rate at […]. The recombinant FOLR1 (Novoprotein, Cat#: C784) at variant concentrations was loaded with the flow rate of 30 μL/min in HBS-P buffer. Following antigen loading, the surface was regenerated with 10 mM glycine-HCl (pH 1.5). Sensor grams were fit with a 1:1 binding model using Biacore 8k evaluation software (GE Healthcare).

[10] = molecular target: T1, Recombinant extracellular domain of …; assay: ELISA on immobilized FOLR1 extracellular domain; O.D. 450 nm; remark: listed apart in the source
[11] = molecular target: T1, Recombinant extracellular domain of …; assay: as above; remark: listed apart in the source
[12] = molecular target: T1, Recombinant extracellular domain of …; assay: as above; remark: listed apart in the source
[13] = molecular target: T1, Recombinant extracellular domain of …; assay: as above; remark: listed apart in the source
[14] = molecular target: T2, FOLR1 on SK-OV-3 cells (ATCC HTB-77); assay: FACS on SK-OV-3 cells; MFI; remark: listed apart in the source
[15] = molecular target: T1, Recombinant extracellular domain of …; assay: ELISA on immobilized FOLR1 extracellular domain; O.D. 450 nm; remark: listed apart in the source

T1 sequence (P15328 25-233 limits assumed): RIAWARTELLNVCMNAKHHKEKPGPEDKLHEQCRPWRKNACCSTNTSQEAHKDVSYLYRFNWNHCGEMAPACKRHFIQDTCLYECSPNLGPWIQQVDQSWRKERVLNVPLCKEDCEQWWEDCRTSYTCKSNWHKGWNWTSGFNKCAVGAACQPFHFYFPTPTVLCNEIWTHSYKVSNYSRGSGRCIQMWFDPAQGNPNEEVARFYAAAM

B1: F20-H2L2 (antibody, V domains shown)
VH: QVQLVQSGAEVKKPGSSVKVSCKASGYTFASYYLYWVRQAPGQGLEWIGEINPRSGGTNFNEKFKSRATVTVDASTSTAYMELSSLRSEDTAVYYCSRSGRLRGFYTMDYWGQGTLVTVSS
VL: DIVMTQSPDSLAVSLGERATINCKAGENVGSYVSWYQQKPGQSPKLLIYGASNRYTGVPDRFSGSGSATDFTLTISSLQAEDVAVYYCGQTYRFLTFGQGTKVEIK
notes: also called humanized F20 mAb H2L2
binding result [1]: binds
binding result [2]: binds

B2: F20-H1L4 (antibody, V domains shown)
VH: B1 VH with A74K
VL: DIQMTQSPSTLSASVGDRVTITCKAGENVGSYVSWYQQKPGKAPKLLIYGASNRYTGVPARFSGSGSATEFTLTISSLQPEDFATYYCGQTYRFLTFGQGTKVEVK
notes: also called humanized F20 mAb H1L4
EC50 (read off the curve) [3]: ~300 pM

B3: F20-H3L4 (antibody, V domains shown)
VH: B1 VH with R67K, A74K, S77N
VL: B2 VL
notes: also called humanized F20 mAb H3L4
EC50 (read off the curve) [3]: ~300 pM
EC50 (read off the curve) [4]: ~1000 pM

B4: F20-H2L1 (antibody, V domains shown)
VH: B1 VH
VL: B1 VL with S43P
notes: also called humanized F20 mAb H2L1
binding result [1]: binds
binding result [2]: binds

B5: F20-H2L3 (antibody, V domains shown)
VH: B1 VH
VL: B2 VL with E81D
notes: also called humanized F20 mAb H2L3
EC50 (read off the curve) [1]: ~300 pM

B6: F20-H3L3 (antibody, V domains shown)
VH: B1 VH with R67K, A74K, S77N
VL: B2 VL with E81D
notes: also called humanized F20 mAb H3L3
EC50 (read off the curve) [5]: 200 to 300 pM
EC50 (read off the curve) [4]: ~1000 pM

B7: F5-H4L1 (antibody, V domains shown)
VH: EVQLVESGGGLVQPGGSLRLSCAVSGFTFSNYGMSWVRQAPGKGLEWVATISSGGSYTYYPDSVKGRFTISRDNDKNTLYLQMSSLRAEDTAVYYCSTQGSSGYVGYWGQGTLVTVSS
VL: DIQMTQSPSSVSASVGDRVTITCKASQDITNFIGWYQHKPGKAPKLLISYTSILESGVPSRFSGSGSGRDYTLTISSLQPEDFATYYCLQYYNLWTFGGGTKVEIK
notes: also called humanized F5 mAb H4L1
EC50 (read off the curve) [6]: ~400 pM

B8: F5-H4L2 (antibody, V domains shown)
VH: B7 VH
VL: B7 VL with R69T
notes: also called humanized F5 mAb H4L2
EC50 (read off the curve) [6]: ~400 pM

B9: chimeric anti-FOLR1 mAb F5 (antibody, V domains shown)
VH: EVQLVESGGELVKPGGSLKLSCAVSGFTFSNYGMSWVRQTPDKRLEWVATISSGGSYTYYPDSVKGRFTISRDNDKNTLYLQMSSLKSEDTAMYYCSTQGSSGYVGYWGQGTTLTVSS
VL: DIQMTQSPSSLSAFLGGKVTITCKASQDITNFIGWYQHKPGKGPRLLISYTSILESGIPSRFSGSGSGRDYSFSISNLEPEDIATYYCLQYYNLWTFGGGTKLEIK
notes: also called Chimeric mAb F5
EC50 (read off the curve) [7]: ~100 pM
EC50 (read off the curve) [8]: ~400 pM
Kd [9]: 352 pM
EC50 (read off the curve) [10]: 200 to 300 pM
EC50 (read off the curve) [11]: 100 to 200 pM

B10: chimeric anti-FOLR1 mAb F17 (antibody, V domains shown)
VH: DVQLVESGGGLVQPGGSRKLSCAASGFTFSDFGMHWIRQAPERGLEWVAYMSYTPGTFHYADTVKDRFFISRDNAKNTLFLQMTSLRSDDTAMYYCARVHVGTVDYWGQGTSVTVSS
VL: DVVLTQSPATLSVTPGDSVSLSCRASQNINNNLHWFQQKSHESPRLLIKYASQSISGIPSRFSGSGSGTDFTLSINNVETEDFGIYFCQQSNSWPALTFGTGTKVELK
notes: also called Chimeric mAb F17
EC50 (read off the curve) [7]: 100 to 200 pM
EC50 (read off the curve) [12]: 200 to 300 pM
EC50 (read off the curve) [8]: ~800 pM
EC50 (read off the curve) [13]: 200 to 300 pM
Kd [9]: 265 pM

B11: F10-H1L3 (antibody, V domains shown)
VH: EVQLVQSGAEVKKPGSSVKVSCKASGYAFSSSWMNWVRQAPGQGLEWIGRIYPGDGYTHYNGMFKGRASLTADKSTSTGYMELSSLRSEDTAVFFCTRHGDFPYWYFDVWGRGTLVTVSP
VL: DIQMTQSPSTLSASVGDRVTITCRASENIDSYLAWYQQKPGRAPKLLVYAATNLAVGVPSRFSGSGSGTEYTLTISSLQSEDFATYYCQHHYSTPPTFGQGTKLEIK
notes: also called humanized F10 mAb H1L3
EC50 (read off the curve) [14]: ~3000 pM

B12: F17-H1L1 (antibody, V domains shown)
VH: EVQLVETGGGLIQPGGSLRLSCAASGFTFSDFGMHWIRQAPGKGLEWVAYMSYTPGTFHYADTVKDRFTISRDNSKNTLYLQMNSLRAEDTAVYYCARVHVGTVDYWGQGTLVTVSS
VL: EVVLTQSPATLSLSPGERATLSCRASQNINNNLHWFQQKPGQAPRLLIKYASQSISGIPARFSGSGSGTDFTLTISSLEPEDFAVYFCQQSNSWPALTFGQGTKVEIK
notes: also called humanized F17 mAb H1L1
EC50 (read off the curve) [13]: 100 to 200 pM

B13: chimeric anti-FOLR1 mAb F10 (antibody, V domains shown)
VH: QVQLQQSGPELVKPGASVKISCKASGYAFSSSWMNWVRQRPGKGLEWIGRIYPGDGYTHYNGMFKGKATLTADKSSSTGYMQLSSLTSEDSAVYFCTRHGDFPYWYFDVWGTGTTVTVSS
VL: DIQMTQSPASLSASVGESVTITCRASENIDSYLAWYQQKQGKSPQLLVYAATNLAVGVPSRFSGSGSGTQYTLKINSLQSEDVARYYCQHHYSTPPTFGGGTKLEIK
notes: also called Chimeric mAb F10
EC50 (read off the curve) [7]: ~200 pM
EC50 (read off the curve) [15]: ~200 pM
EC50 (read off the curve) [8]: ~900 pM
Kd [9]: 704 pM
